Here are results for 60 variants from the Human Domainome abundance scans (Beltran et al. 2025).

± gives the uncertainty stated by the source.

B1: Tripartite motif-containing protein 6, residues 93 to 134; numbered along this chain, Q9C030 (parent)
chain: KAVLCADHGEKLQLFCQEDGKVICWLCERSQEHRGHHTFLVE

This data set covers variants of B1. The data set is described as follows: abundance fitness (aPCA) (normalised: wild type 0, dead -1); higher = more abundant; growth selection in yeast, the domain comes from the species named. As to conditions: Homo sapiens.
Regarding KAVLCADHGEKLQLFCQEDGKVICWECERSQEHRGHHTFLVE, the abundance fitness amounted to 0.082 ± 0.34.
For KAVLCADHGEKLQLFCQEDGKVICWTCERSQEHRGHHTFLVE, the abundance fitness is -0.011 ± 0.094.
On to KAVLCADHGEKLQLFCQEDGKVICWMCERSQEHRGHHTFLVE, for which the abundance fitness was 0.474 ± 0.15.
In the case of KAVLCADHGEKLQLFCQEDGKVICWCCERSQEHRGHHTFLVE, the abundance fitness was -0.155 ± 0.097.
For KAVLCADHGEKLQLFCQEDGKVICWGCERSQEHRGHHTFLVE, the abundance fitness is -0.042 ± 0.058.
Regarding KAVLCADHGEKLQLFCQEDGKVICWKCERSQEHRGHHTFLVE, the abundance fitness amounted to 0.104 ± 0.072.
Regarding KAVLCADHGEKLQLFCQEDGKVICWYCERSQEHRGHHTFLVE, the abundance fitness is -0.015 ± 0.078.
As to KAVLCADHGEKLQLFCQEDGKVICWICERSQEHRGHHTFLVE, the abundance fitness is -0.172 ± 0.13.
Then KAVLCADHGEKLQLFCQEDGKVICWNCERSQEHRGHHTFLVE, with -0.057 ± 0.14; and KAVLCADHGEKLQLFCQEDGKVICWPCERSQEHRGHHTFLVE, with -0.186 ± 0.15.
Turning to KAVLCADHGEKLQLFCQEDGKVICWRCERSQEHRGHHTFLVE, the abundance fitness amounted to 0.084 ± 0.067.
Regarding KAVLCADHGEKLQLFCQEDGKVICWQCERSQEHRGHHTFLVE, the abundance fitness came to 0.259 ± 0.11.
Then KAVLCADHGEKLQLFCQEDGKVICWLCEASQEHRGHHTFLVE, with -0.331 ± 0.073.
On to KAVLCADHGEKLQLFCQEDGKVICWLCEDSQEHRGHHTFLVE, for which the abundance fitness is -0.268 ± 0.15.
Then KAVLCADHGEKLQLFCQEDGKVICWLCEESQEHRGHHTFLVE, with -0.094 ± 0.074; and KAVLCADHGEKLQLFCQEDGKVWCWLCERSQEHRGHHTFLVE, with -0.483 ± 0.11.
For the variant KAVLCADHGEKLQLFCQEDGKVSCWLCERSQEHRGHHTFLVE, the abundance fitness was -0.579 ± 0.098.
Then KAVLCADHGEKLQLFCQEDGKVECWLCERSQEHRGHHTFLVE, with -0.581 ± 0.13.
As for KAVLCADHGEKLQLFCQEDGKVGCWLCERSQEHRGHHTFLVE, the abundance fitness was -0.346 ± 0.048.
Then KAVLCADHGEKLQLFCQEDGKVACWLCERSQEHRGHHTFLVE, with -0.463 ± 0.091; and KAVLCADHGEKLQLFCQEDGKVQCWLCERSQEHRGHHTFLVE, with -0.842 ± 0.2; and KAVLCADHGEKLQLFCQEDGKVVCWLCERSQEHRGHHTFLVE, with -0.168 ± 0.091.
KAVLCADHGEKLQLFCQEDGKVNCWLCERSQEHRGHHTFLVE: the abundance fitness is -0.091 ± 0.16.
Take KAVLCADHGEKLQLFCQEDGKVLCWLCERSQEHRGHHTFLVE: the abundance fitness was -0.361 ± 0.074.
For the variant KAVLCADHGEKLQLFCQEDGKVHCWLCERSQEHRGHHTFLVE, the abundance fitness is -0.202 ± 0.11.
With KAVLCADHGEKLQLFCQEDGKVRCWLCERSQEHRGHHTFLVE, the abundance fitness was -0.34 ± 0.063.
With KAVLCADHGEKLQLFCQEDGKWICWLCERSQEHRGHHTFLVE, the abundance fitness was -0.554 ± 0.2.
Then KAVLCADHGEKLQLFCQEDGKGICWLCERSQEHRGHHTFLVE, with -0.019 ± 0.1.
For KAVLCADHGEKLQLFCQEDGKQICWLCERSQEHRGHHTFLVE, the abundance fitness was -0.04 ± 0.24.
For KAVLCADHGEKLQLFCQEDGKAICWLCERSQEHRGHHTFLVE, the abundance fitness was -0.047 ± 0.13.
Regarding KAVLCADHGEKLQLFCQEDGKNICWLCERSQEHRGHHTFLVE, the abundance fitness is 0.093 ± 0.21.
For KAVLCADHGEKLQLFCQEDGKRICWLCERSQEHRGHHTFLVE, the abundance fitness was 0.065 ± 0.1.
As for KAVLCADHGEKLQLFCQEDGKEICWLCERSQEHRGHHTFLVE, the abundance fitness was -0.127 ± 0.22.
In the case of KAVLCADHGEKLQLFCQEDGKVICWLCSRSQEHRGHHTFLVE, the abundance fitness is -0.116 ± 0.059.
Turning to KAVLCADHGEKLQLFCQEDGKVICWLCIRSQEHRGHHTFLVE, the abundance fitness is -0.414 ± 0.17.
KAVLCADHGEKLQLFCQEDGKVICWLCYRSQEHRGHHTFLVE: the abundance fitness is -0.362 ± 0.11.
With KAVLCADHGEKLQLFCQEDGKVICWLCGRSQEHRGHHTFLVE, the abundance fitness is -0.197 ± 0.045.
As for KAVLCADHGEKLQLFCQEDGKVICWLCDRSQEHRGHHTFLVE, the abundance fitness is -0.101 ± 0.087.
For the variant KAVLCADHGEKLQLFCQEDGKVICWLCHRSQEHRGHHTFLVE, the abundance fitness is -0.481 ± 0.11.
Take KAVLCADHGEKLQLFCQEDGKVICWLCPRSQEHRGHHTFLVE: the abundance fitness was -0.376 ± 0.075.
Consider KAVLCADHGEKLQLFCQEDGKVICWLCVRSQEHRGHHTFLVE, for which the abundance fitness was -0.19 ± 0.066.
As for KAVLCADHGEKLQLFCQEDGKVICWLCWRSQEHRGHHTFLVE, the abundance fitness is -0.319 ± 0.079.
In the case of KAVLCADHGEKLQLFCQEDGKVICWLCKRSQEHRGHHTFLVE, the abundance fitness is -0.062 ± 0.066.
For KAVLCADHGEKLQLFCQEDGKVICWLCMRSQEHRGHHTFLVE, the abundance fitness was -0.326 ± 0.074.
With KAVLCADHGEKLQLFCQEDGKVICWLCQRSQEHRGHHTFLVE, the abundance fitness was -0.124 ± 0.061.
Then KAVLCADHGEKLQLFCQEDGKVICWLCCRSQEHRGHHTFLVE, with -0.494 ± 0.14; and KAVLCADHGEKLQLFCQEDGKVICWLCARSQEHRGHHTFLVE, with -0.218 ± 0.053.
For KAVLCADHGEKLQLFCQEDGKVICWLCTRSQEHRGHHTFLVE, the abundance fitness is 0.059 ± 0.099.
In the case of KAVLCADHGEKLQLFCQEDGKVICWLCLRSQEHRGHHTFLVE, the abundance fitness was -0.272 ± 0.057.
KAVLCADHGEKLQLFCQEDGKVICWLGERSQEHRGHHTFLVE: the abundance fitness is -0.66 ± 0.082.
As for KAVLCADHGEKLQLFCQEDGKVICWLPERSQEHRGHHTFLVE, the abundance fitness is -0.536 ± 0.35.
For the variant KAVLCADHGEKLQLFCQEDGKVICWLLERSQEHRGHHTFLVE, the abundance fitness was -0.8 ± 0.19.
Turning to KAVLCADHGEKLQLFCQEDGKVICWLRERSQEHRGHHTFLVE, the abundance fitness is -0.603 ± 0.079.
KAVLCADHGEKLQLFCQEDGKVICWLKERSQEHRGHHTFLVE: the abundance fitness is -1.14 ± 0.22.
As to KAVLCADHGEKLQLFCQEDGKVICWLVERSQEHRGHHTFLVE, the abundance fitness is -1.32 ± 0.35.
KAVLCADHGEKLQLFCQEDGKVICWLQERSQEHRGHHTFLVE: the abundance fitness was -0.969 ± 0.24.
As for KAVLCADHGEKLQLFCQEDGKVICWLSERSQEHRGHHTFLVE, the abundance fitness was -1.1 ± 0.27.
KAVLCADHGEKLQLFCQEDGKVICWLEERSQEHRGHHTFLVE: the abundance fitness is -0.863 ± 0.1.
On to KAVLCADHGEKLQLFCQEDGKVICWLTERSQEHRGHHTFLVE, for which the abundance fitness is -0.882 ± 0.35.
KAVLCADHGEKLQLFCQEDGKVICWLAERSQEHRGHHTFLVE: the abundance fitness is -0.755 ± 0.1.
